Test results reported in publication PMC7201719.

How the values were obtained:
[1] = target: Heat shock cognate 71 kDa protein (chicken (endogenous in DF-1)) (UniProt O73885)
[2] = target: Heat shock cognate 71 kDa protein (chicken (endogenous in DF-1)) (UniProt O73885); remark: listed apart in the source

Chain of UniProt O73885 (O73885 whole entry): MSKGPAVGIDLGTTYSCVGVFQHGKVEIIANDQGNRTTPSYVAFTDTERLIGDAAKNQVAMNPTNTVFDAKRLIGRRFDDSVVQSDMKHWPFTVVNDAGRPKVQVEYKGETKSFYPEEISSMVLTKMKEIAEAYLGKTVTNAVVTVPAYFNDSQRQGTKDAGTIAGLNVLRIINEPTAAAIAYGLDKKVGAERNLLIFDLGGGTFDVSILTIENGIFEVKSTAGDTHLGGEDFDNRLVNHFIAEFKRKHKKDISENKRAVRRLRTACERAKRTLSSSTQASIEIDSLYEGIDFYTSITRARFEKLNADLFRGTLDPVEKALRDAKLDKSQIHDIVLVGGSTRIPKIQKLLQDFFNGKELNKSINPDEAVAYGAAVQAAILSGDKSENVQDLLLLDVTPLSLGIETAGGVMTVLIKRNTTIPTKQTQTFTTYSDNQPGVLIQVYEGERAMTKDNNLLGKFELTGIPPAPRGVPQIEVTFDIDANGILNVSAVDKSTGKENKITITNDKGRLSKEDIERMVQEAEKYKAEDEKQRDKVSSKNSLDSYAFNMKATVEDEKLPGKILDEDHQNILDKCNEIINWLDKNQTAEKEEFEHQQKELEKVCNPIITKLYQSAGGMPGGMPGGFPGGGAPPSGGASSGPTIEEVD

**Q.** What does the source list for IBDV VP2 protein (natural protein)?
**A.** viral titer of IBDV in DF-1 cells pretreated with 5 uM of the HSC70 inhibitor VER155008, 24-72 h after infection (untreated control 3.15-7.23), whole IBDV virus (log10TCID50/mL) [1]: 0; VP2/GAPDH by western blot in DF-1 cells pretreated with anti-HSC70 antibody at 25, 12.5 and 6.25 ug/mL and infected with IBDV (normal IgG 3.329, no antibody 3.345) [2]: 1.43 VP2/GAPDH
